Patent US8017576B2, “Methods and compositions to treat mucositis” (The University of Chicago, priority 2005, dated 2011)

What was measured:
[1] = test system: human colonic Caco2 (C2) cell monolayers; experiment: Tight junction recovery after low-calcium disruption, ZO-1 confocal microscopy; type: cell-based; conditions: low-calcium medium (3 μM) 1 hour, assessed 2 hours after addition; AMP peptide 8 μg/ml, KGF-1 100 ng/ml, EGF 100 ng/ml
Procedure: The AMP77-97 peptide prevented decreases in TJ proteins and epithelial integrity seen after treatment of human colonic Caco2 (C2) cell monolayers with the oxidant monochloramine, which disrupts intercellular junctions (FIG. 2; C,D). These cells were exposed to low-calcium medium (3 μM) for 1 hr to disrupt TJs, and then allowed to recover in medium containing AMP77-97 peptide, epidermal growth factor (EGF) or keratinocyte growth factor (KGF-1) which are known epithelial cell mitogens that might facilitate recovery of disrupted TJs. […] At the molecular level, AMP77-97 peptide facilitates the formation of TJs by enhancing translocation of several proteins (protein kinase C-zeta, Par6, Cdc42, ECT2 and Par3) from the cytosol into TJ domains.
Localization of the tight junction protein ZO-1 was monitored by indirect immunofluorescence laser scanning confocal microscopy in confluent monolayers of C2 cells. […] To disrupt tight junctions, cells were switched to low-calcium medium (3 μM) for 1 hour. Then a growth factor at a known mitogenic concentration was added to the medium, and 2 hours later its effect on tight junction formation was assessed by confocal microscopy. Vehicle, AMP peptide (8 μg/ml), KGF-1 (100 ng/ml), and EGF (100 ng/ml) were compared.

[2] = test system: stomach and intestinal epithelial cells; experiment: Mitogenic and physiological effects on stomach and intestinal epithelial cells; type: cell-based
Source text: The synthesis of AMP-18 is confined to lumenal mucosal lining epithelial cells of the gastric antrum of humans and other mammals. Inside cells the protein is co-localized with mucins in secretion granules, and appears to be secreted into the mucus overlying the apical plasma membrane. […] These include mitogenesis, restitution, maturation of barrier function, and cell protection after oxidant, non-steroidal anti-inflammatory (NSAID), and DSS-mediated injury. Certain of these physiological effects can occur at concentrations that are relatively low for rhAMP-18 (<50 μM) compared to the concentrations of other gastric peptide mediators such as trefoil peptides or the α-defensin, cryptdin 3 (>100 μM). […] AMP-18 likely plays a role in physiological and pathological processes such as wound healing in the gastric mucosal epithelium in vivo as may occur in gastritis secondary to NSAID drugs, other pharmaceutical agents and alcohol, ulcer disease, and the consequences of H. pylori infection and inflammation.

| Molecule | formation of new tight junctions / localization of ZO-1 [1] | concentration for mitogenic effect relative to growth-promoting synthetic peptides ([2]; recombinant protein prepared in E. coli) | concentrations at which physiological effects occur ([2]; rhAMP-18) |
| --- | --- | --- | --- |
| KGF-1: keratinocyte growth factor, known epithelial cell mitogen (protein, UniProt P21781 32-194, looked up) Fibroblast growth factor 7: CNDMTPEQMATNVNCSSPERHTRSYDYMEGGDIRVRRLFCRTQWYLRIDKRGKVKGTQEMKNNYNIMEIRTVAVGIVAIKGVESEFYLAMNKEGKLYAKKECNEDCNFKELILENHYNTYASAKWTHNGGEMFVALNQKGIPVRGKKTKKEQKTAHFLPMAIT | persistent separation of cells with TJ disruption and apparent loss of ZO-1 | – | – |
| rhAMP-18: recombinant human AMP-18 prepared in E. coli; Antrum Mucosal Protein-18 (gastrokine-1) (protein, UniProt Q9NS71 21-185, looked up) Gastrokine-1: NYNINVNDDNNNAGSGQQSVSVNNEHNVANVDNNNGWDSWNSIWDYGNGFAATRLFQKKTCIVHKMNKEVMPSIQSLDALVKEKKLQGKGPGGPPPKGLMYSVNPNKVDDLSKFGKNIANMCRGIPTYMAEEMQEASLFFYSGTCYTTSVLWIVDISFCGDTVEN | – | an order of magnitude lower | < 50 μM |
